Measured values reported in PMC9408933, “Discovery of the Key Mutation Site Influencing the Thermostability of Thermomyces lanuginosus Lipase by Rosetta Design Programs” (International Journal of Molecular Sciences, 2022).

Test system: T1, CCCCCCCCCCCCCCCC(=O)Oc1ccc([N+](=O)[O-])cc1
T1 construct: N-terminal His-tag, secreted from Pichia pastoris GS115 (pPIC9K), Ni-NTA purified
Assay: p-nitrophenol release, Michaelis-Menten fit
Assay type: biochemical, Thermomyces lanuginosus
Settings: 37 °C, pH 9.0, 100 mM Tris-HCl, pNPP 0.08-10.00 mM, apparent Km
From the text: p-nitrophenol release, Michaelis-Menten fit on TLL (Thermomyces lanuginosus lipase)

| Substance | Km [µM] | Vmax [µmol/min/mg] | kcat [s⁻¹] | kcat/Km [M⁻¹ s⁻¹] |
| --- | --- | --- | --- | --- |
| TLL (Thermomyces lanuginosus lipase) (Thermomyces lanuginosus; R231T) | 190 ± 30 | 344 | 1090 ± 27.6 | 5.75e+06 ± 146000 |
| TLL (Thermomyces lanuginosus lipase) (Thermomyces lanuginosus; R231H) | 180 ± 20 | 330 | 790 ± 22.7 | 4.39e+06 ± 126000 |
| TLL (Thermomyces lanuginosus lipase) (Thermomyces lanuginosus; R231E) | 140 ± 20 | 301 | 1230 ± 27.6 | 8.79e+06 ± 197000 |
| TLL (Thermomyces lanuginosus lipase) (Thermomyces lanuginosus; R231V) | 140 ± 20 | 260 | 713 ± 8.11 | 5.09e+06 ± 57900 |
| TLL (Thermomyces lanuginosus lipase) (Thermomyces lanuginosus; R231M) | 190 ± 30 | 319 | 765 ± 17.6 | 4.02e+06 ± 92400 |
| TLL (Thermomyces lanuginosus lipase) (Thermomyces lanuginosus; R231I) | 180 ± 20 | 303 | 767 ± 22.8 | 4.26e+06 ± 127000 |
| TLL (Thermomyces lanuginosus lipase) (Thermomyces lanuginosus; R231A) | 230 ± 30 | 384 | 1220 ± 43 | 5.31e+06 ± 187000 |
| TLL (Thermomyces lanuginosus lipase) (Thermomyces lanuginosus; R231P) | 160 ± 20 | 339 | 1387 ± 12.8 | 8.669e+06 ± 80300 |
| TLL (Thermomyces lanuginosus lipase) (Thermomyces lanuginosus; R231Q) | 230 ± 30 | 354 | 788 ± 7.98 | 3.42e+06 ± 34700 |
| TLL (Thermomyces lanuginosus lipase) (Thermomyces lanuginosus; R231K) | 170 ± 20 | 345 | 1100 ± 14 | 6.5e+06 ± 82500 |
